Biological target: GST-XNRL (Xenopus laevis)
Assay: pull-down; Glutathione-Sepharose-bound GST-XNRL (or GST alone) incubated with affinity purified MYC fusion proteins in binding buffer (0.1% Triton X-100, 50 mM HEPES pH 7.5, 150 mM NaCl, 1% glycerol, 1.5 mM MgCl2, 5 mM EGTA) overnight at 4°C, washed three times; anti-MYC Western blot, bands quantified by Image J (retained/input, normalised to MYC-XOTX2); two independent experiments

- fold binding relative to MYC-XOTX2 (retained/input ratio): 2.4 fold
Substance: MYC-XOTX5b (natural protein)

Source: article PMC1929070
